This test concerns the target Recombinant TGF-β receptor 2 protein (UniProt P37173). As to the kind of experiment: SPR; Biacore T200, 25 °C; TβR2 amine-coupled on a CM5 chip (50 µg/ml in 10 mM acetate pH 4.0); peptides in PBS injected at 60 µl/min, 180 s association, 540 s dissociation; 1:1 binding model.

Chain of Recombinant TGF-β receptor 2 protein (P37173 23-166): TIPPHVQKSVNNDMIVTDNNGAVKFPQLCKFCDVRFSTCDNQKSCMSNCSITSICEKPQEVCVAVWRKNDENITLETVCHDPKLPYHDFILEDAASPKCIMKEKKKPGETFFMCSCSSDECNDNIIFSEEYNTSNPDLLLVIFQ

On to KP12 (peptide), for which the koff stood at 0.00233 s⁻¹.
